Results on 74 sequences are retold here after the supplement of paper PMC12636428.

For this series, the system named is Saccharomyces cerevisiae. In words: transcriptional activation domain activity (GFP:mCherry ratio, weighted mean of sorted bins, harmonized to initial dataset scale) (arbitrary fluorescence ratio units); higher = stronger transcriptional activation. The settings on record: beta-estradiol 1 µM; induction time 4 h. The procedure, abridged: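 Barcoded protein tiles fused to an estradiol-inducible synthetic transcription factor were integrated at the yeast URA3 locus, in diploids carrying a GFP reporter. Cultures were diluted 1:5 into SC with 1 uM beta-estradiol, held 4 hours at 30 °C, sorted into 8 bins by GFP:mCherry ratio, and barcodes sequenced. Tiles under 50 reads were discarded. Activation activity is the read-weighted mean of bin median fluorescence, averaged across barcodes, then linearly mapped onto the initial dataset scale.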
With “EDEGEKDDDEEVKEVKEEGDNSGEEGKEGNGEEAKTEEDKPSEEQQQQAKEEA”, the “transcriptional activation domain activity” value was below 6570.

Regarding “ILLGLLVLVLLYANVVLIIYHEPTFRRPLDMAFIHAPIRLFFILPFGVLFWYS”, the “transcriptional activation domain activity” value turned out to be 63100.

In the case of “RMGRWKHGWRKWWWKFYKWCFLWMIEVIRVVKVVGIVIVGCIYLGLRFFIFVE”, the “transcriptional activation domain activity” value was found to be 57000.

Consider “GRTNVALPIYLFVFGELIDAYENRHIHHMDRIKMVLRMWFFKSIWKSFLQGAG”, for which the “transcriptional activation domain activity” value worked out at 56300.

In the case of “MLAGAFLPLLFGFFFFSFPTSHTPPFHLLPPGFQFLPVSTSFSYFFCFCFFFP”, the “transcriptional activation domain activity” value turned out to be 39100.

As for “DRLSLRFTLAISLTDVIRAIAILIYSHFQVDDWRCSLLSFSLYWLTLLYLFLT”, the “transcriptional activation domain activity” value came to 25300.

For “TSDTGKKRQIKEEAEEESEEEPPTKRQRRKPVEEKETPKKAAAKPKADKVPAK”, the “transcriptional activation domain activity” value was found to be 40500.

For “MHSPHNCRVSKHFVIFCFFFFFFLFCRPLPLLSNLILTLFFSSFFLLGLFGVL”, the “transcriptional activation domain activity” value turned out to be 64700.

Regarding “IFTSFLLFHDPTLFMFISYDIAYVWWVHLMERLIEPLPLMCCFLIMPMICFVI”, the “transcriptional activation domain activity” value is 54400.

Consider “DLLVLLRKCREVALRIIQKESCFNVLNLRRELVSNLLLSFWVVGQSLTTKVPM”, for which the “transcriptional activation domain activity” value is 33000.

As to “LGVVFWCWCGLLGLKIQLYAGSYIKFRSVVIVMLIVLEIFEISINVSVCVIFH”, the “transcriptional activation domain activity” value was 53000.

As for “LIGMDQDVLGRWSQVIGEKGEGSLFSLALGPHQSNWLVLIRQACLLLLRSVAA”, the “transcriptional activation domain activity” value turned out to be 51200.

“LRWMLRCAFALTRYGTTAFLLFFVYVVFLLRVYLLTDRRRSLLYCLTATFVVE”: the “transcriptional activation domain activity” value was 40100.

Consider “FLGTAMYFLYGESVIYYFKHILLVDRILLPLATHHRFISFMLYIIGFVFFVFS”, for which the “transcriptional activation domain activity” value is 51000.

As to “EKTKRKKKSATGATKRAGSGEAKPKRQRKKKGRRGESGDEEESGDEEGAERRA”, the “transcriptional activation domain activity” value was below 6570.

With “VYPEKVIFAPFEIFVVLVSFFNLVLFLFCFPFTLYPPKRWLRIVVLLFLFFFC”, the “transcriptional activation domain activity” value is 50400.

With “SRWFLVLFLLPYPRASPFFLVLYLFSLILHSRPCLYCIVLLTVLFTSSCYWAP”, the “transcriptional activation domain activity” value was determined as 53600.

In the case of “LQSSLLHPCAFYVRLLISILIEYISLPCLTIDFFFFFIFRVTFPIFFLTFFYL”, the “transcriptional activation domain activity” value came to 61400.

Take “IVFLLRVLIRCLPTLTQILDFELVSAELSLAELPDTQFKLKELGVSTKVVFTQ”: the “transcriptional activation domain activity” value is 45800.

Consider “GTGEEEEETTKHIVRKRGGGRGGRGKQESEQEWESEEEEEGTGEEEETTKQRT”, for which the “transcriptional activation domain activity” value is 39000.

As for “GDKEKRKTSRRSRSPSRGRHQRRGGGGGEESRPRSESPRRRRRRLDSSARRDD”, the “transcriptional activation domain activity” value was 44400.

For the sequence “MSSSAASGPMGESSKRKAGSEAVAGSSSSSSISRDGKKAKLKPQDEATATGAA”, the “transcriptional activation domain activity” value was 31400.

On to “RGKQPYRWTIWIYLGTRYSCLLMFITFFILNHAGHALCKPLILMNYVFNIVSW”, for which the “transcriptional activation domain activity” value is 41700.

On to “MPPCGLVSLTCLTELVLGLNITACVVILVDGNHLIYILSLFFWCWILLTLPAT”, for which the “transcriptional activation domain activity” value is 35500.

For “IIYVPQARLMNFFNALTTQSFLYFWAVCLMRLHIAAFLPNLHNGKPYLITVYT”, the “transcriptional activation domain activity” value is 47500.

Regarding “DAPAQPEPADDGEEAEEVDEPKGKKGKGGGKKGGGKGKGGKGKEKKADKAAAE”, the “transcriptional activation domain activity” value was 29400.

“YNIRAKGFNIFNITISVGLIFNQYVNPIALAVLTWKYYVVYCAWLLCEVLFLY”: the “transcriptional activation domain activity” value worked out at 81900.

Take “MKGIRLYFKYVLLHVLLLPPSLLPFFFPLSPLFYMSILMGFSSPFFFFFSFIH”: the “transcriptional activation domain activity” value is 53000.

“MAMTPVRGEGNDGYRTSDGEMESGGTRAQGKVIQRSRWVASSHIVAPAEVEKP”: the “transcriptional activation domain activity” value amounted to 27500.

In the case of “MVSTRRQERDKEKKEKRKEEKEKEKGEGKTEKKKKKKSGDKKSKKGEGRTKEG”, the “transcriptional activation domain activity” value is 21200.

Consider “YVILVAVSIFTTTYVMLTSLPVLFQQCPFQTPLSSIIWYLGHFLVIAFLSLFS”, for which the “transcriptional activation domain activity” value was determined as 62600.

Regarding “VKVVRGTGKLIFLSRCIEPWLPKNNAYLLSLPWLDWKSLVLTVLYGIKGYCFL”, the “transcriptional activation domain activity” value was 62600.

On to “MRGLCRSLKLCKLFVTMFDGWMMLFSFFFFFLFLLFFYYYSCCSDGFLLCFFL”, for which the “transcriptional activation domain activity” value came to 42500.

For the sequence “ILLHIYVLGVCYFTFPLFLNGFAHWGLWKLDRITPVENLVQQYILKPYFKSYC”, the “transcriptional activation domain activity” value turned out to be 62900.

“KSKKKRRSKRKPKNQKKKTTGKDAQEHLDDEQTRNLEDGQDDKKDEQDDDNKK”: the “transcriptional activation domain activity” value was 31400.

As for “REGRKKGREAREKRSGGKGGKGGKGKGRATDGAEGAEEGAAAGARQPNGRNAK”, the “transcriptional activation domain activity” value was determined as 22200.

Turning to “KASLGTGDAGKATTKSASAAVKSKAAAKSAKASDSKGGGEDEEEDGGAPKKKK”, the “transcriptional activation domain activity” value was determined as 18900.

As for “MELVLHCFYLGAIRKPGHTYDSWSSDTPFQLSMIGDSNLLIIWLWLLIPWRSF”, the “transcriptional activation domain activity” value turned out to be 80500.

For “MGRELVLFIFFFFLFFFPFFFPLLLPLLLSSVRLVDIFLLKKYYLINLSLAYP”, the “transcriptional activation domain activity” value is 37400.

For “RTTSLGVWFLLIQSLWYCAFGVLYVWFFCQTFESFNTLLVLDYILRFILCLMF”, the “transcriptional activation domain activity” value stood at 86900.

On to “MQIVLYLHCKVCFIYFHCLLLDFRSFLHIQRPQEPWIAYIFPTTACVSPQTRR”, for which the “transcriptional activation domain activity” value was determined as 55300.

Turning to “CRLLSSSVFLFSFFPFFLFFFYCLLVFFAWFLILRGCFVVHCLCKFGYDWTGG”, the “transcriptional activation domain activity” value is 30300.

Turning to “MADRGTGAGGEGRGRGGFGRGGRGRGGPRGRGGRGGRGGRKDEEKEWVPVTKL”, the “transcriptional activation domain activity” value was determined as 24800.

With “RKIVNEPREYLHAGNVKDNQGARQKKRRVGRGLGSGLGKTSGRGQKGWKARAP”, the “transcriptional activation domain activity” value turned out to be 37000.

Regarding “MLYINHFLHSPRGLVEQAKSLFFLYLSFFFLFFFFPFISFHFSFNVPFSLNCI”, the “transcriptional activation domain activity” value is 50900.

Turning to “IRWHIREHQLRVLAKFCADRIGDPYVYCPCIIAKGLVLALIRIVSALLEKPAI”, the “transcriptional activation domain activity” value stood at 56200.

Turning to “MKDSHTARSDAVVFAIAVGRPFFFAAVLLRLLATETLGSSIALGVIGLVFIYC”, the “transcriptional activation domain activity” value is 42400.

As to “MFLSTVMTRSICTFIFVEFELHGDAKSLCCGGLCRFCRLCSKVGVNYYSPCWW”, the “transcriptional activation domain activity” value worked out at 73000.

For the sequence “GGEEEEGAPKRPAKKARPSVESEAEVKEEEEEEDAVKPKRGRRTAKSASSSRK”, the “transcriptional activation domain activity” value was determined as 27300.

Consider “PAANNPTGTLSSDELTFTHDLIEKVFNCNDKLSDNYNTQILSNTEHPLLTSYK”, for which the “transcriptional activation domain activity” value was 73500.

Turning to “EKVGTLWRARDVNERRQAKASGAAGGAAKATKPAGAAAASGAKPKATGAAGAA”, the “transcriptional activation domain activity” value came to 21900.

As for “TAKLLLEDSMKKKRQEIQQLEQATHQRSNLETTHLLDIDWDALLDPSDTLNFM”, the “transcriptional activation domain activity” value came out at 90000.

“SHFLPLLLFLSLSFILFSFPFILPFSLISLFSYFFLPFLHISTLFHSYFSFLL”: the “transcriptional activation domain activity” value came out at 47400.

Take “AQPSAGFGQPSTIGAKPNPFGAPAFGQPAQPAGPAFGQPSQPTTTAAFGQPSQ”: the “transcriptional activation domain activity” value amounted to 29900.

As to “PIHAVYLFHLISSTFLLKYIYTYRFYFIFFLPFFLIWILCAAYWWLFFTHHIP”, the “transcriptional activation domain activity” value was determined as 54600.

On to “MLLSAHFIDFFLLLLLLLLLHLIVPLIFILHHSLLFFLVLPIVCNYFFSWLPV”, for which the “transcriptional activation domain activity” value is 78400.

Consider “MGVLFLLCPCLCVVPLFCIAMQWSIGLYLCLDQRFPVLYTYFFILFSSILFCS”, for which the “transcriptional activation domain activity” value came to 48300.

On to “RKSTSGKTEKADTEKPEKKKPANEGNTAAGTKGTGERKPAVKAGGGVKGRPSG”, for which the “transcriptional activation domain activity” value was determined as 17800.

Consider “GLLCWIAIRKLGIIGLYVYMDDFFGWDFLDNLIFYRGMRRPRRQVLLLILWEF”, for which the “transcriptional activation domain activity” value is 50700.

Regarding “LCPLFPPCFLVLHHILGFLYPRFFLFVFSLVDCLLYFSLSFLVCVRFCLCLGL”, the “transcriptional activation domain activity” value is 78000.

For “SDASEGSKGRAREDPSDRAVVEYQGLSRFSSIPEKEKVWAYVVKIVKLLATTK”, the “transcriptional activation domain activity” value came out at 34600.

Turning to “FRVNLMSCIVARLSKKSWIRSVSFPADLTGTASLEIVRLLNRMVKEKRFNIHP”, the “transcriptional activation domain activity” value was 36300.

Consider “KRCFSLFFFFFFSFLPFLFLFLSPYCLLNTFVPFSFSFLIYLILLLKFNLSAE”, for which the “transcriptional activation domain activity” value stood at 48900.

Turning to “VLCTCVPRQLVEPLVKLRKIHRRLAMTWIAALDYFASYRLVPFIRMIMELESV”, the “transcriptional activation domain activity” value was determined as 44700.

Take “NCSFIFLMLNCILAAFCFYNLSSIMNGLVYFDQFSLIPPLHLGLVTLGMCVLL”: the “transcriptional activation domain activity” value was 46400.

Turning to “EPHNDIILDLLFTLAYWHALAKLRLHTDFTLSKLEEVTMFLGRQLRYLRRVTC”, the “transcriptional activation domain activity” value is 51800.

Take “EQGQNLQGLLEFMCFEVGPMFLDLIIAFVYVYTLFDLYMSMILLFVGLAYVWI”: the “transcriptional activation domain activity” value was 33200.

In the case of “LHFMYVVAIKDRKAWVGYSAAELCMVGFWNLIVVWLKLLVPWRFFRLWALADG”, the “transcriptional activation domain activity” value was 61900.

Consider “GLKRLAMLLRRMLSEKDLIFVFKGLQFLKYWTLSAEEIHTHARYWRRAWKILS”, for which the “transcriptional activation domain activity” value was 52400.

For “KVISLLYSNRESSYLEDTCPTENDYSDLLKGYINEIEKTLPPKAIIEQYLSHF”, the “transcriptional activation domain activity” value turned out to be 51100.

In the case of “GAATTANAGGKRNRMKVNGKYYTRLDCIGRGGSSRVYRVMAENSKFFALKRVT”, the “transcriptional activation domain activity” value stood at 35500.

In the case of “FFCFVFLAHYTWLIKHGFQTHLLELGSFFSDLSLIICFFLLIMHLFCVTPFFR”, the “transcriptional activation domain activity” value is 68400.

Regarding “WSILYLLCEVYARLLLTLSDDEFLSHAGNPLSLKQVIELTRQLKNLSFVLFWR”, the “transcriptional activation domain activity” value came to 70700.

“SQVAVSPGAVIEVNEEDAGEEQEQQQPARKRQRHRSKRQKLDAEQSAGQGGVV”: the “transcriptional activation domain activity” value came to 31700.
